Measurements: patent publication US20210101992A1 (KIRA BIOTECH, published 2021)
Changes are numbered by the printed parent chain.

T1: CD83-Fc (human CD83 ectodomain, Fc tagged) (human, UniProt Q01151 20-144)
T1 construct: extracellular domain; The construct is not described beyond 'hCD83 ectodomain (Fc and His tagged)'; also called hCD83-Fc; not shown: Fc tag
T1 sequence (looked up): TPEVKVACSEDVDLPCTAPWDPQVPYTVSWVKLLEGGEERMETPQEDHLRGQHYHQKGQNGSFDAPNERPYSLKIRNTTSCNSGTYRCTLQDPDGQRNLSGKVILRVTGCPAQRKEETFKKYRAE

T2: CD83-His (ectodomain of human CD83 with 6x Histidine tag) (human, UniProt Q01151 20-144)
T2 construct: extracellular domain; Expressed in mammalian cells; also called hCD83-His; recombinant CD83-His; not shown: 6x Histidine tag
T2 sequence (looked up): T1 sequence (looked up)

B1: hFab4.5 (Fab, V domains shown)
VH: EVQLVQSGGAVVQPGRSLRLSCAASGFTFSTYGMHWVRQAPGKGLEWVAAVSYDGSNKYYADFVKGRFTISRDNPKNTLYLQMNSLRADDTAVYYCARRGGLDIWGQGTTVTVSS
VL: LTQSPLSLPVTLGQPASISCKSSQSLVDSDGNTYLNWFQQRPGQSPRRLIYKVSNRDSGVPDRFSGSGSGTDFTLKISRVEAEDVGVYYCMQGTHWPRTFGQGTKVEIKR
notes: Light chain shuffled variant of 1F7, expressed as hFab in the E. coli periplasm
B2: hFab4.8 (Fab, V domains shown)
VH: B1 VH
VL: MTQSPSSLSASVGDRVTITCQASQDISNYLNWYQQKPGKAPKLLIYDASNLETGVPSRFSGSGSGTDFTFTISSLQPDDFATYYCQQTYSWPRTFGQGTKLEIKR
notes: as for B1
B3: hFab4.4 (Fab, V domains shown)
VH: B1 VH
VL: B1 VL with L1M, K21R, D30A, Y34F, N36H, Q39H
notes: as for B1
B4: hFab 1F7 (Fab, V domains shown)
VH: B1 VH
VL: LTQPPPASGTPGQRVTISCSGSSSNIGSNTVNWYQQLPGTAPKLLIYGNDQRPSGVPDRFSASKSGTSASLAISGLQSEDEAHYYCAAWDGSLNGGVIFGGGTKVTLG
notes: Human Fab from a phage display library; The heavy chain carries a 6x His tag and a myc tag, and the light chain was detected as kappa; also called 1F7 hFab; 1F7 Fab
B5: hFab4.9 (Fab, V domains shown)
VH: B1 VH
VL: MTQSPSSLSASVGHPVTITCRASQSLISYLNWYHQKPGKAPKLLIYAASILQSGVPSRFSGSGSGTDFTLTISSLQPENFASYYCQHTDSFPRTFGHGTKVEIKR
notes: Light chain shuffled variant of 1F7
B6: hFab4.2 (Fab, V domains shown)
VH: B1 VH
VL: MTHTPLSLSVTPGQPASISCKSSQSLLHSDGKTYLYWYLQRPGQSPQPLIYEVSNRFSGVPDRFSGSGSGTDFTLKISRVEAEDVGVYYCMQSLQLWTFGQGTKVEIKR
notes: as for B5
B7: hFab4.12 (Fab, V domains shown)
VH: B1 VH
VL: MTQAPVVSVALEQTVRITCQGDSLAIYYDFWYQHKPGQAPVLVIYGKNNRPSGIPHRFSGSSSNTDSLTITGAQAEDEADYYCNSRDSSGNHWVFGGGTNLTVLG
notes: as for B5
B8: hFab4.1 (Fab, V domains shown)
VH: B1 VH
VL: VTQPPSASGTPGQRVTISCSGSSSNIGTNPVNWYQQLPGTAPKLLIYTTDQRPSGVPDRFSGSKSGTSASLAISGLQSEDEADYYCAAWDDSLSGLYVFGTGTKVTVLG
notes: as for B5
B9: hFab4.10 (Fab, V domains shown)
VH: B1 VH
VL: LTQPPSASGTPGQGVTISCRGSTSNIGNNVVNWYQHVPGSAPKLLIWSNIQRPSGIPDRFSGSKSGTSASLAISGLQSEDEAVYYCAVWDDGLAGWVFGGGTTVTVLS
notes: as for B5
B10: hFab4.3 (Fab, V domains shown)
VH: B1 VH
VL: B1 VL with L1M, K21R, V27I, D28H, N36D, K76R, V85I, G93A
notes: as for B5
B11: hFab4.18 (Fab, V domains shown)
VH: B1 VH
VL: B1 VL with S23N, D28H, S78N, H95Q, V106L, E107D
notes: as for B5
B12: hFab4.7 (Fab, V domains shown)
VH: B1 VH
VL: B1 VL with L1M, K21R, D28H, T33M, G93A, H95Q, W96P, P97T, R98W, V106L
notes: as for B5

Target: T1, CD83-Fc (human CD83 ectodomain, Fc …)
Experiment: binding of periplasmic hFab's to CD83-Fc, normalised to binding to 9E10

Binder | binding result
B1 | binds
B2 | binds
B3 | binds

Target: T2, CD83-His (ectodomain of human CD83 with …)
Experiment: ELISA on coated CD83-His, detection with anti-kappa-HRP antibody, absorbance at 450 nm
Method: The reactivity of purified hFab 1F7 to CD83 was analysed by ELISA.

Binder | EC50 (read off the curve) [µg/mL]
B4 | ~2

Target: T2, CD83-His (ectodomain of human CD83 with …)
Experiment: relative binding of light chain shuffled clones against 1F7; CD83 construct not given

Binder | binding result
B5 | binds
B6 | binds
B7 | binds
B1 | binds
B8 | binds
B2 | binds
B9 | binds
B10 | binds
B11 | binds
B3 | binds
B12 | binds

Target: BSA (Bos taurus, UniProt P02769)
Experiment: ELISA on coated antigens, absorbance at 450 nm

Sequence of BSA (P02769 25-607 limits assumed): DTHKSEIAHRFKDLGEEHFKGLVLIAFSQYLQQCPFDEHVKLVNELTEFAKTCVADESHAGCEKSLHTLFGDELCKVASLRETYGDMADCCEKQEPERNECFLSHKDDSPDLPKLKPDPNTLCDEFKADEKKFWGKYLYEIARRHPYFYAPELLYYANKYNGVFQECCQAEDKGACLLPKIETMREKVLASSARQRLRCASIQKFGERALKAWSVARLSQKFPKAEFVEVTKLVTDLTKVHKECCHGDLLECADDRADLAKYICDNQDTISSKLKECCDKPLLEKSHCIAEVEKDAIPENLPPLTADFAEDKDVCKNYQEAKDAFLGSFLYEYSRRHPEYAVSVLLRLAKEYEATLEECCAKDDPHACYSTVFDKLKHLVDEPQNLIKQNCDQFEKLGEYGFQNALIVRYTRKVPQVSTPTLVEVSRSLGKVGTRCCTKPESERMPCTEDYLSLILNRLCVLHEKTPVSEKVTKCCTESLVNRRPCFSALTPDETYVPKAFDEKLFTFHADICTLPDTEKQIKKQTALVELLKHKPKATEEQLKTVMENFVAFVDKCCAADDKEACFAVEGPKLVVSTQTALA

Binder | binding result
B4 | no binding
